According to US20230416410A1 (ZOETIS SERVICES, published 2023):

Target: T1, CTLA4 Fc bIgG3aSAP (canine; bovine, UniProt Q9XSI1 36-161, limits assumed)
T1 construct: No linker
T1 sequence: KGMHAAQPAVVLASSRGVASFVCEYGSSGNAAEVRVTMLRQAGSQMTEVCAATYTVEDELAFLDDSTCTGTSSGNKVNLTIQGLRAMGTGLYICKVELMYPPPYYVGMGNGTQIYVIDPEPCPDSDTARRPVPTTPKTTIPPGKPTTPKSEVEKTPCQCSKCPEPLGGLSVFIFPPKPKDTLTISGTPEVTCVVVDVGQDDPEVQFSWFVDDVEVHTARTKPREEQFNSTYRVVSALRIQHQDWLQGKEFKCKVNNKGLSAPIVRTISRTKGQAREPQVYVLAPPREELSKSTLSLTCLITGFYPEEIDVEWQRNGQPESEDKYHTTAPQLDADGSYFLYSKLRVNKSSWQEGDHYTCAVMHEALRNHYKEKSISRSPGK
Assay: SPR Biacore, biotinylated receptor on SA sensor, pH 7.4, 15 C
Procedure: A Biacore SPR binding assay was designed to test the affinity of bovine IgG subclasses to bFcgR1, bFcgR2 and bFcgR3. All reported KD's were measured by Biacore (Cytiva, Marlborough, MA, USA) using series S SA sensor. Biotinylated-bovine FcgR1, R2 and R3 were captured on the sensor surface using a modified SA capture method to reach the desired surface density. 10 mM HEPES, 150 mM NaCl, 3 mM EDTA, 0.05% v/v surfactant P20, pH7.4 buffer was used as the running and titration buffer. Various concentrations of bovine CTLA4-Fc fusions or mAbs were titrated and flowed over the receptor surface and affinities were determined using Biacore T200 Evaluation software (Cytiva, Marlborough, MA, USA) with 1:1 binding model. The method of double referencing has been applied where the reference flow cell was subtracted from the flow cell containing immobilized receptors and blank runs containing buffer only were subtracted out from all runs. Flow cells were regenerated using 10 mM Glycine pH1.5. Runs were performed at 15° C.
Biacore methods for bFcgR1, R2, and R3 were performed as described in Examples above. […] Although the two allotypes have different KDs for bFcgR2 and bFcgR3, both wildtype allotypes do bind. All of the mutations, bIgG3Win, bIgG3WinSAS, bIgG3SAS and bIgG3SAP for both the a and b allotypes knocked down binding to bFcgR1, bFcgR2 and bFcgR3 to negligible affinities. Thus, for knocking out receptor binding, the two allotypes compare similarly.

B1: recombinant bovine FcgR2 (receptor)
chain: KPDLPKAVVTIQPAWINVLREDHVTLTCQGTSFSAGNLTTWFHNGSSIHTQKQPSYSFRAGSNDSGSYRCQREQTSLSDPVHLDVISDWLLLQTPSLVFQEGEPIMLRCHSWRNQPLNKITFYQDRKSKIFSYQRTNFSIPRANLSHSGQYHCTAFIGKMLHSSQPVNITVQESSSSGPSSMTHHHHHHAGLNDIFEAQKIEWHE
modifications: biotin on the BAP tag (BirA)
notes: also called bFcgR2; bFcgRII
  binding result: no binding
